Measured values as given in the supplement of paper PMC10567573.

B1: WDR41 (parent)
chain: HVGELIIWDALDWTMQAYERNFWD
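Also: lentivirally expressed fusions sorted by FACS into six bins by GFP to DsRed ratio, PSI derived from sequencing read proportions per bin multiplied by bin number.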

Variants of: B1
Experiment: protein stability index of a GFP-peptide fusion (GPS, HEK-293T) (PSI 1-6); higher = more stable
Settings: c terminus: a fixed tail appended
HVGELIIWDADDWTMQAYERNFWD [L11D] gave a protein stability index of 1.77.
In the case of HVGELIIWDARDWTMQAYERNFWD [L11R], the protein stability index is reported as 2.83.
Variant HVGELIIWDACDWTMQAYERNFWD [L11C] has a protein stability index of 2.2.
HVGELIIWDAQDWTMQAYERNFWD [L11Q] showed a protein stability index of 2.86.
Work on HVGELIIWKALDWTMQAYERNFWD [D9K] yielded a protein stability index of 2.07.
In the case of HVGELIIWRALDWTMQAYERNFWD [D9R], the protein stability index is reported as 2.69.
For HVGELIIWMALDWTMQAYERNFWD [D9M], the protein stability index was 3.
HVGELIIWTALDWTMQAYERNFWD [D9T] gave a protein stability index of 3.42.
For HVGELIIWWALDWTMQAYERNFWD [D9W], the protein stability index was 2.99.
In the case of HVGELIIWCALDWTMQAYERNFWD [D9C], the protein stability index is reported as 2.29.
Variant HVGELIIWPALDWTMQAYERNFWD [D9P] has a protein stability index of 3.61.
HVGELIIWFALDWTMQAYERNFWD [D9F] gave a protein stability index of 2.57.
With HVGELIIWHALDWTMQAYERNFWD [D9H] the protein stability index was 2.88.
With HVGELIIWLALDWTMQAYERNFWD [D9L] the protein stability index was 1.54.
In the case of HVGELIIWDALDHTMQAYERNFWD [W13H], the protein stability index is reported as 2.04.
HVGELIIWDALDNTMQAYERNFWD [W13N] showed a protein stability index of 1.69.
With HVGELIIWDALDPTMQAYERNFWD [W13P] the protein stability index was 1.52.
HVGELIIWDALDETMQAYERNFWD [W13E] showed a protein stability index of 1.59.
Work on HVGELIIWDALDDTMQAYERNFWD [W13D] yielded a protein stability index of 2.07.
With HVGELIIWDALDFTMQAYERNFWD [W13F] the protein stability index was 4.66.
HVGELIIWDALDATMQAYERNFWD [W13A] gave a protein stability index of 1.98.
Work on HVGELIIWDALDKTMQAYERNFWD [W13K] yielded a protein stability index of 2.37.
With HVGELIIWDALDCTMQAYERNFWD [W13C] the protein stability index was 2.51.
For MVGELIIWDALDWTMQAYERNFWD [H1M], the protein stability index was 3.52.
IVGELIIWDALDWTMQAYERNFWD [H1I] gave a protein stability index of 4.28.
Variant PVGELIIWDALDWTMQAYERNFWD [H1P] has a protein stability index of 1.49.
In the case of RVGELIIWDALDWTMQAYERNFWD [H1R], the protein stability index is reported as 1.58.
With YVGELIIWDALDWTMQAYERNFWD [H1Y] the protein stability index was 2.18.
In the case of EVGELIIWDALDWTMQAYERNFWD [H1E], the protein stability index is reported as 1.27.
Work on SVGELIIWDALDWTMQAYERNFWD [H1S] yielded a protein stability index of 3.37.
In the case of TVGELIIWDALDWTMQAYERNFWD [H1T], the protein stability index is reported as 2.01.
Work on NVGELIIWDALDWTMQAYERNFWD [H1N] yielded a protein stability index of 1.48.
With LVGELIIWDALDWTMQAYERNFWD [H1L] the protein stability index was 2.13.
With QVGELIIWDALDWTMQAYERNFWD [H1Q] the protein stability index was 1.9.
For KVGELIIWDALDWTMQAYERNFWD [H1K], the protein stability index was 2.73.
In the case of CVGELIIWDALDWTMQAYERNFWD [H1C], the protein stability index is reported as 2.04.
Variant HVGERIIWDALDWTMQAYERNFWD [L5R] has a protein stability index of 1.5.
Variant HVGETIIWDALDWTMQAYERNFWD [L5T] has a protein stability index of 1.94.
Variant HVGEFIIWDALDWTMQAYERNFWD [L5F] has a protein stability index of 3.54.
Work on HVGENIIWDALDWTMQAYERNFWD [L5N] yielded a protein stability index of 1.93.
HVGEAIIWDALDWTMQAYERNFWD [L5A] gave a protein stability index of 1.95.
Variant HVGEPIIWDALDWTMQAYERNFWD [L5P] has a protein stability index of 1.99.
HVGEGIIWDALDWTMQAYERNFWD [L5G] showed a protein stability index of 1.92.
In the case of HVGESIIWDALDWTMQAYERNFWD [L5S], the protein stability index is reported as 1.47.
In the case of HVGEMIIWDALDWTMQAYERNFWD [L5M], the protein stability index is reported as 1.97.
HVGEQIIWDALDWTMQAYERNFWD [L5Q] gave a protein stability index of 2.13.
Work on HVGEYIIWDALDWTMQAYERNFWD [L5Y] yielded a protein stability index of 3.11.
Work on HVGEKIIWDALDWTMQAYERNFWD [L5K] yielded a protein stability index of 2.21.
HVGEDIIWDALDWTMQAYERNFWD [L5D] gave a protein stability index of 2.17.
HVGEHIIWDALDWTMQAYERNFWD [L5H] showed a protein stability index of 1.56.
Work on HVGELIIWDSLDWTMQAYERNFWD [A10S] yielded a protein stability index of 1.63.
In the case of HVGELIIWDTLDWTMQAYERNFWD [A10T], the protein stability index is reported as 3.56.
For HVGELIIWDPLDWTMQAYERNFWD [A10P], the protein stability index was 1.5.
For HVGELIIWDNLDWTMQAYERNFWD [A10N], the protein stability index was 1.05.
HVGELIIWDDLDWTMQAYERNFWD [A10D] showed a protein stability index of 1.6.
Work on HVGELIIWDKLDWTMQAYERNFWD [A10K] yielded a protein stability index of 1.09.
HVGELIIWDWLDWTMQAYERNFWD [A10W] showed a protein stability index of 3.36.
Variant HVGELIIWDHLDWTMQAYERNFWD [A10H] has a protein stability index of 1.61.
HVGELIIWDGLDWTMQAYERNFWD [A10G] gave a protein stability index of 1.95.
HVGELIRWDALDWTMQAYERNFWD [I7R] showed a protein stability index of 1.99.
In the case of HVGELIHWDALDWTMQAYERNFWD [I7H], the protein stability index is reported as 2.17.
Variant HVGELINWDALDWTMQAYERNFWD [I7N] has a protein stability index of 2.19.
Work on HVGELIMWDALDWTMQAYERNFWD [I7M] yielded a protein stability index of 1.52.
Work on HVGELIDWDALDWTMQAYERNFWD [I7D] yielded a protein stability index of 2.07.
Work on HVGELILWDALDWTMQAYERNFWD [I7L] yielded a protein stability index of 1.93.
HVGELICWDALDWTMQAYERNFWD [I7C] showed a protein stability index of 1.26.
HVGELIEWDALDWTMQAYERNFWD [I7E] gave a protein stability index of 2.41.
In the case of HVGELITWDALDWTMQAYERNFWD [I7T], the protein stability index is reported as 1.41.
HVGELIYWDALDWTMQAYERNFWD [I7Y] gave a protein stability index of 2.71.
In the case of HVGELISWDALDWTMQAYERNFWD [I7S], the protein stability index is reported as 2.33.
HVGELIVWDALDWTMQAYERNFWD [I7V] gave a protein stability index of 1.59.
HVGELIKWDALDWTMQAYERNFWD [I7K] showed a protein stability index of 1.96.
Variant HVGELIAWDALDWTMQAYERNFWD [I7A] has a protein stability index of 1.87.
For HVGELIWWDALDWTMQAYERNFWD [I7W], the protein stability index was 2.44.
With HVGELIGWDALDWTMQAYERNFWD [I7G] the protein stability index was 1.8.
Variant HVGELIQWDALDWTMQAYERNFWD [I7Q] has a protein stability index of 2.11.
With HVGELIPWDALDWTMQAYERNFWD [I7P] the protein stability index was 2.87.
Work on HVGELIIWDALYWTMQAYERNFWD [D12Y] yielded a protein stability index of 1.11.
HVGELIIWDALKWTMQAYERNFWD [D12K] gave a protein stability index of 2.15.
HVGELIIWDALFWTMQAYERNFWD [D12F] showed a protein stability index of 3.35.
HVGELIIWDALVWTMQAYERNFWD [D12V] showed a protein stability index of 2.81.
With HVGELIIWDALPWTMQAYERNFWD [D12P] the protein stability index was 2.1.
Work on HVQELIIWDALDWTMQAYERNFWD [G3Q] yielded a protein stability index of 2.54.
HVRELIIWDALDWTMQAYERNFWD [G3R] gave a protein stability index of 1.87.
HVKELIIWDALDWTMQAYERNFWD [G3K] showed a protein stability index of 2.06.
With HVHELIIWDALDWTMQAYERNFWD [G3H] the protein stability index was 2.49.
In the case of HVSELIIWDALDWTMQAYERNFWD [G3S], the protein stability index is reported as 1.84.
With HVDELIIWDALDWTMQAYERNFWD [G3D] the protein stability index was 2.35.
Variant HVLELIIWDALDWTMQAYERNFWD [G3L] has a protein stability index of 1.72.
For HVNELIIWDALDWTMQAYERNFWD [G3N], the protein stability index was 1.89.
In the case of HVYELIIWDALDWTMQAYERNFWD [G3Y], the protein stability index is reported as 2.42.
HVTELIIWDALDWTMQAYERNFWD [G3T] showed a protein stability index of 2.82.
HVEELIIWDALDWTMQAYERNFWD [G3E] showed a protein stability index of 1.87.
For HVVELIIWDALDWTMQAYERNFWD [G3V], the protein stability index was 4.45.
